# Results: the supplement of paper PMC9170038
# Test system: MS2 coat protein
# Assay: apparent KD of MS2 coat protein; designed switch direction (-1 OFF switch, 1 ON switch): -1; higher = weaker reporter binding
# Outline: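 On Illumina chips, designed RNA switches with common flanks were made by stalled E. coli RNA polymerase. Titrations with SNAP-549-labelled MS2 coat protein, doubling from 0.7 or 1.5 nM to 3 µM, were done with no input, with 200 uM small-molecule ligand, or with an oligonucleotide input. Apparent KD is the median per design over clusters, from curve fits of normalised cluster fluorescence.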
# [1] = input ligand: microRNA oligo, concentration not stated
# [2] = Eterna round: R95, input ligand: FMN 200 uM
# [3] = Eterna round: R95, input ligand: microRNA oligo, concentration not stated
# [4] = Eterna round: R95, input ligand: none
sequence,measurement,setting,value
"AUAAAUCAUGUAGGAUAUGCGUGGCGAAGCUAUGCAGAAGGACAUGAGGAUCACCCAUGUUCUAGCGUCUGAGUACAGAUGCAA [Mat - Exclusion NG 1 - Mod of JL - D3] (Eterna round: R96, puzzle: Exclusion NG 1)",apparent KD of MS2 coat protein,input ligand: FMN 200 uM,72.5 nM
same,apparent KD of MS2 coat protein,[1],18.5 nM
same,apparent KD of MS2 coat protein,input ligand: none,22.9 nM
"AUAACGUGGGCGUCCCACGGCAAGCUUUUUGCUCGUUUGACAUGAGGAUCACCCAUGUAGCUGCGGGAUCCCUAUGA [Anatsobe] (puzzle: Sensor v3, turn-off variant 2)",apparent KD of MS2 coat protein,[2],17.6 nM
same,apparent KD of MS2 coat protein,[3],22.5 nM
same,apparent KD of MS2 coat protein,[4],15.2 nM
"AUAAGUAUAUAGGAUAUCUAGCUGGUAACAGCUAGAGAAGGAUGUACAUGAGGAUCACCCAUGUAAAUCGAUCA [Ex6/10-A2] (Eterna round: R97, puzzle: Exclusion 6)",apparent KD of MS2 coat protein,input ligand: FMN 200 uM,18.5 nM
same,apparent KD of MS2 coat protein,input ligand: none,18.1 nM
"AUAAUACAUGAGGAUCACCCAUGUGAGGAUAUACGACUCCAACCUAACAGCUUGGACCGUAGAAGGCACAAGGG [Exclusion 1 (MOD1.2 Esqu)] (Eterna round: R97, puzzle: Exclusion 1)",apparent KD of MS2 coat protein,input ligand: FMN 200 uM,54.5 nM
same,apparent KD of MS2 coat protein,input ligand: none,261 nM
"AUAAUCGUAGGAUAUCAUUAGCCCUACAUGAGGAUCACCCAUGUGGGCUGGUGAGGGCGGUGAGAAGGACGAGAGA [EX5 B.1] (Eterna round: R97, puzzle: Exclusion 5)",apparent KD of MS2 coat protein,input ligand: FMN 200 uM,25.1 nM
same,apparent KD of MS2 coat protein,input ligand: none,18.4 nM
"AUAAUGUAAGGAUAUCAGUCGUACAGCCUCGGCUGUACGACUGAGAAGGUACAUGAGGAUCACCCAUGUGGUCA [E4/9-A2] (Eterna round: R97, puzzle: Exclusion 4)",apparent KD of MS2 coat protein,input ligand: FMN 200 uM,103 nM
same,apparent KD of MS2 coat protein,input ligand: none,1040 nM
"AUAAUGUAAGGAUAUCAGUCGUACAGCUGCGGCUGUACGACUGAGAAGGUACAUGAGGAUCACCCAUGUGAUCA [E4/8-A3] (Eterna round: R97, puzzle: Exclusion 4)",apparent KD of MS2 coat protein,input ligand: FMN 200 uM,104 nM
same,apparent KD of MS2 coat protein,input ligand: none,1380 nM
"AUAAUGUCAGGAUAUCAGACGUACAGCUGCGGCUGUACGUCUGAGAAGGGACAUGAGGAUCACCCAUGUGAUUA [E4/3-A3] (Eterna round: R97, puzzle: Exclusion 4)",apparent KD of MS2 coat protein,input ligand: FMN 200 uM,124 nM
same,apparent KD of MS2 coat protein,input ligand: none,1460 nM
"AUAAUUAAUGCAGGAUAUCAGCACGUUUAGUGCUGAGAAGGGCACAUGAGGAUCACCCAUGUGAUCAAUUAAUAUUAAUAUUAU [ENG1/11-D2] (Eterna round: R96, puzzle: Exclusion NG 1)",apparent KD of MS2 coat protein,input ligand: FMN 200 uM,269 nM
same,apparent KD of MS2 coat protein,[1],51.1 nM
same,apparent KD of MS2 coat protein,input ligand: none,65 nM
"AUACACUAACGAGGAUAUUGGAAAGGAAGUGUACAAGAAGGCGUCCGUGGAAGGGUGAAACAUGAGGAUCACCCAUGUGAAUAA [Exclusion NG 1] (Eterna round: R96, puzzle: Exclusion NG 1)",apparent KD of MS2 coat protein,input ligand: FMN 200 uM,519 nM
same,apparent KD of MS2 coat protein,[1],254 nM
same,apparent KD of MS2 coat protein,input ligand: none,648 nM
"AUACACUAGCGAGGAUAUUGGAAAGGAAGUGUACAAGAAGGCGCCCGUGGAAGGGUGAAACAUGAGGAUCACCCAUGUGAAUAA [PowerStrip EXNG 1.29] (Eterna round: R96, puzzle: Exclusion NG 1)",apparent KD of MS2 coat protein,input ligand: FMN 200 uM,151 nM
same,apparent KD of MS2 coat protein,[1],96.2 nM
same,apparent KD of MS2 coat protein,input ligand: none,66.1 nM
AUACUCGUUGUGAGGAUAUCGUUUUCGUCACGGAUCGAGAAGGCACAUGAGGAUCACCCAUGUUUGACGUGAAU [JR_BMOE4_Sub092] (puzzle: Brourd's mod of Exclusion 4),apparent KD of MS2 coat protein,[3],15.4 nM
"AUAGGUUCGUAGGAUAUUCCUGCAGGCGCGCUGGAAGAAGGAUGAACAUGAGGAUCACCCAUGUGAACACUCCG [Eternabot (L2) Solution 88] (Eterna round: R97, puzzle: Exclusion 6)",apparent KD of MS2 coat protein,input ligand: FMN 200 uM,78.3 nM
same,apparent KD of MS2 coat protein,input ligand: none,19.6 nM
"AUAUACAAGCAAAGAUCCUACAUGAGGAUCACCCAUGUGUUCGUCUUAUAAAGUACUAUCACGAAAGUGAUAGUACA [Mat - Sensor v3 - turn-off var 1 - Eli Mod - D80] (puzzle: Sensor v3, turn-off variant 1)",apparent KD of MS2 coat protein,[2],161 nM
same,apparent KD of MS2 coat protein,[3],6.99 nM
same,apparent KD of MS2 coat protein,[4],87.8 nM
"AUAUACGGAGGAUAUACUUGAGGAUCACCCAAGUGGAAUCCCGUUUGGGCGGUAAAUAGUAGAAGGCCGACCCA [jl-ex3-4.42 ViennaUCT mod] (Eterna round: R97, puzzle: Exclusion 3)",apparent KD of MS2 coat protein,input ligand: FMN 200 uM,17.7 nM
same,apparent KD of MS2 coat protein,input ligand: none,16.3 nM
"AUAUACGGAGGAUAUACUUGAGGAUCACCCAAGUGGAGUCCCGUUUGGGCGGUAAAUAGUAGAAGGCCGUCCCA [jl-ex3-4.44 ViennaUCT mod] (Eterna round: R97, puzzle: Exclusion 3)",apparent KD of MS2 coat protein,input ligand: FMN 200 uM,16.8 nM
same,apparent KD of MS2 coat protein,input ligand: none,12.3 nM
AUAUAUAGUGUGAGGAUAUGCUGGUCCUUGGAUCAGCAGAAGGCACAUGAGGAUCACCCAUGUAGUUUAUUUUA [Mat - Exclusion 4 - JL Mod - D1] (puzzle: Brourd's mod of Exclusion 4),apparent KD of MS2 coat protein,[3],29.3 nM
AUAUUAAUAUAGGAUAUCGAAAUUAUUAAUUAUCGAGAAGGAUAAACAUGAGGAUCACCCAUGUGGUAUCAUGG [Mat - Exclusion 6 - JL Mod - D41] (puzzle: Exclusion 6),apparent KD of MS2 coat protein,[2],257 nM
same,apparent KD of MS2 coat protein,[3],257 nM
same,apparent KD of MS2 coat protein,[4],328 nM
"AUAUUGUGAGGAUAUGAAGUUAGUAUCGAAAGAUACUAAGUUCAGAAGGCACAUGAGGAUCACCCAUGUUUCUC [Long static hairpin v4] (Eterna round: R97, puzzle: Exclusion 4)",apparent KD of MS2 coat protein,input ligand: FMN 200 uM,710 nM
same,apparent KD of MS2 coat protein,input ligand: none,71.5 nM
"AUAUUGUGAGGAUAUGAUCUUAGUAUCGAAAGAUACUAAGUUCAGAAGGCACAUGAGGAUCACCCAUGUUUCUC [Long static hairpin v14] (Eterna round: R97, puzzle: Exclusion 4)",apparent KD of MS2 coat protein,input ligand: FMN 200 uM,982 nM
same,apparent KD of MS2 coat protein,input ligand: none,70.6 nM
"AUCAAGGGAGGAUAUACAGUGAACAGUACUAGUCAGGCGGCACAUGAGGAUCACCCAUGUAGAAGGCCCAUGAU [Eternabot (L1) Solution 70] (Eterna round: R97, puzzle: Exclusion 2)",apparent KD of MS2 coat protein,input ligand: FMN 200 uM,80 nM
same,apparent KD of MS2 coat protein,input ligand: none,24.8 nM
"AUCAGCUCGUCAGGAUAUACAUGCGUGCUUCGGCACGAAUUUAAGAUCACAUGAGGAUCACCCAUGUAGAAGGGACGAGCUGAU [ENG2/3-B3] (Eterna round: R96, puzzle: Exclusion NG 2)",apparent KD of MS2 coat protein,input ligand: FMN 200 uM,1270 nM
same,apparent KD of MS2 coat protein,[1],498 nM
same,apparent KD of MS2 coat protein,input ligand: none,526 nM
"AUCAGCUCGUGAGGAUAUACAUGAGGAUCACCCAUGUGAUCAAUAGCAGCUUCGGCUGCAUUAAUGUAGAAGGCACGAGCUGAU [ENG2/5-A3] (Eterna round: R96, puzzle: Exclusion NG 2)",apparent KD of MS2 coat protein,input ligand: FMN 200 uM,77.9 nM
same,apparent KD of MS2 coat protein,[1],22.2 nM
same,apparent KD of MS2 coat protein,input ligand: none,214 nM
AUCAUGUAAGGAUAUCUUACAUGUGACGAAAGUCACAGUUAAGAGAAGGUACAUGAGGAUCACCCAUGUAUAAC [Ex4-3: 36] (puzzle: Exclusion 4),apparent KD of MS2 coat protein,[3],26.6 nM
"AUCCAGGCAGGAUAUUGCCGGUUGCACAUGAGGAUCACCCAUGUACUCCUAGGUCGAUGGCAAGAAGGGCUAUCCA [Eternabot (Original) Solution 24] (Eterna round: R97, puzzle: Exclusion 5)",apparent KD of MS2 coat protein,input ligand: FMN 200 uM,26.6 nM
same,apparent KD of MS2 coat protein,input ligand: none,36 nM
"AUCGUGCAGCAAAGCUGUACGAGUACAUGAGGAUCACCCAUGUAGGAUAUGGUACGCAAAGCGUGCUAGAAGGAUAUGAGAUUU [Mat - Exclusion NG 3 - Mod of JL - D100] (Eterna round: R96, puzzle: Exclusion NG 3)",apparent KD of MS2 coat protein,input ligand: FMN 200 uM,55.4 nM
same,apparent KD of MS2 coat protein,[1],27.8 nM
same,apparent KD of MS2 coat protein,input ligand: none,45.2 nM
"AUCGUGCAGCUUUGCUGUACGAGUACAUGAGGAUCACCCAUGUAGGAUAUGGUACGCUUUGCGUGCUAGAAGGAUAUGAGAUGU [JL ENG3 1.49] (Eterna round: R96, puzzle: Exclusion NG 3)",apparent KD of MS2 coat protein,input ligand: FMN 200 uM,37.6 nM
same,apparent KD of MS2 coat protein,[1],32 nM
same,apparent KD of MS2 coat protein,input ligand: none,33 nM
"AUCGUGUGAGGAUAUCGAUCAUGGAGGUCUAGGUCUAUGCGCGAGAAGGCACAUGAGGAUCACCCAUGUAAUGG [jl-ex4-4.29 ViennaUCT mod] (Eterna round: R97, puzzle: Exclusion 4)",apparent KD of MS2 coat protein,input ligand: FMN 200 uM,59.9 nM
same,apparent KD of MS2 coat protein,input ligand: none,636 nM
AUGAGACAUGAGGAUCACCCAUGUGAGGAUAUGUAUGGAUGAAGGAAAGAAUGAGAGAACAGAAGGCACGAAGA [JR_Exclu1_Sub064] (puzzle: Exclusion 1),apparent KD of MS2 coat protein,[2],109 nM
same,apparent KD of MS2 coat protein,[3],98.9 nM
same,apparent KD of MS2 coat protein,[4],138 nM
AUGAGGUUAGGAUAUACAUGAGGAUCACCCAUGUUGAAAGGUUAGGUAGGCGGAGCUGGUAGAAGGAACGGAGC [JR_Exclu3_Sub056] (puzzle: Exclusion 3),apparent KD of MS2 coat protein,[3],27.8 nM
AUGCUCAUAGGAUAUAGAUUGAUUCACAUGAGGAUCACCCAUGUAAACUCUACUUUUUAACUAGAAGGAUGUUUUU [JR_E5_Sub018] (puzzle: Exclusion 5),apparent KD of MS2 coat protein,[3],25.3 nM
"AUGGAGGCAGGAUAUGAGCGUACGAACAUGAGGAUCACCCAUGUGAGAUCUCCUGGUAGCUCAGAAGGGCUAUCUC [Eternabot (Original) Solution 5] (Eterna round: R97, puzzle: Exclusion 5)",apparent KD of MS2 coat protein,input ligand: FMN 200 uM,253 nM
same,apparent KD of MS2 coat protein,input ligand: none,67.4 nM
"AUGGGUCCUCACGGAGCUACAUGAGGAUCACCCAUGUGGAUUGAGGAUAUCGACUGCCGACGGCUCGAGAAGGCAGUUUACUGU [Ex NG3 #95] (Eterna round: R96, puzzle: Exclusion NG 3)",apparent KD of MS2 coat protein,input ligand: FMN 200 uM,18.6 nM
same,apparent KD of MS2 coat protein,[1],14.3 nM
same,apparent KD of MS2 coat protein,input ligand: none,20.2 nM
"AUGGUUAGGUCAGGAUAUCGUUGAUUGAAUAGUAUGAUUUACAUGAGGAUCACCCAUGUUAUAUACGAGAAGGGACUUUAUCAU [JR_ExcNG2_Sub023] (Eterna round: R96, puzzle: Exclusion NG 2)",apparent KD of MS2 coat protein,input ligand: FMN 200 uM,9.77 nM
same,apparent KD of MS2 coat protein,[1],8.77 nM
same,apparent KD of MS2 coat protein,input ligand: none,18.6 nM
